# Data from US20180155451A1 (published 2018).
# T1: FcγRIIa H (human, UniProt P12318 34-217)
# T1 construct: extracellular domain; also called FcgRIIa H type; 2aH
# T1 sequence (looked up): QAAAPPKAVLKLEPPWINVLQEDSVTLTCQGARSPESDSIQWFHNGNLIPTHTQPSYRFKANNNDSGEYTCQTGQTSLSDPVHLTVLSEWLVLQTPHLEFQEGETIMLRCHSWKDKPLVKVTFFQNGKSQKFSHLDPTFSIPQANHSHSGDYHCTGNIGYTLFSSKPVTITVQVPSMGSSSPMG
# T2: FcγRIIb (human, UniProt P31994 43-217)
# T2 construct: extracellular domain; also called FcgRIIb; 2b
# T2 sequence (looked up): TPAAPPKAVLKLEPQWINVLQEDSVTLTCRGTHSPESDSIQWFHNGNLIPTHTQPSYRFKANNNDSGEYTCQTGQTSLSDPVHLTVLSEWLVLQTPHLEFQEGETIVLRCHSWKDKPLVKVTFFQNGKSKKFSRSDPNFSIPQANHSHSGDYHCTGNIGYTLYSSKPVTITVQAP
# T3: FcγRIIb (human, UniProt P31994 43-217)
# T3 construct: extracellular domain; also called FcgRIIb; 2b; not shown: His tag at the C terminus
# T3 sequence (looked up): T2 sequence (looked up)
# B1: GpH7-A5/GpH7-B3 variant E333_04F/GpL16-k0 (antibody, human IgG1, kappa)
# heavy 1: not shown
# heavy 2: not shown
# light: DIVMTQSPLSLPVTPGEPASISCQASESLVHSNRNTYLHWYLQKPGQSPQLLIYKVSNRFSGVPDRFSGSGSGTDFTLKISRVEAEDVGVYYCSQNTHVPPTFGQGTKVEIERTVAAPSVFIFPPSDEQLKSGTASVVCLLNNFYPREAKVQWKVDNALQSGNSQESVTEQDSKDSTYSLSSTLTLSKADYEKHKVYACEVTHQGLSSPVTKSFNRGEC
# notes: Heterodimerized anti-glypican-3 IgG1; substitution in only one H chain (the GpH7-B3 chain); also called He Ab
# B2: GpH7-A5/GpH7-B3 variant E333_13S/GpL16-k0 (antibody, human IgG1, kappa)
# heavy 1: not shown
# heavy 2: not shown
# light: B1 light
# notes: as for B1
# B3: GpH7-A5/GpH7-B3 variant I336_18N/GpL16-k0 (antibody, human IgG1, kappa)
# heavy 1: not shown
# heavy 2: not shown
# light: B1 light
# notes: as for B1
# B4: GpH7-A5/GpH7-B3 variant T335_02A/GpL16-k0 (antibody, human IgG1, kappa)
# heavy 1: not shown
# heavy 2: not shown
# light: B1 light
# notes: as for B1
# B5: GpH7-A5/GpH7-B3 variant I336_10E/GpL16-k0 (antibody, human IgG1, kappa)
# heavy 1: not shown
# heavy 2: not shown
# light: B1 light
# notes: as for B1
# B6: GpH7-A5/GpH7-B3 variant E333_09D/GpL16-k0 (antibody, human IgG1, kappa)
# heavy 1: not shown
# heavy 2: not shown
# light: B1 light
# notes: as for B1
# B7: GpH7-A5/GpH7-B3 variant I336_03V/GpL16-k0 (antibody, human IgG1, kappa)
# heavy 1: not shown
# heavy 2: not shown
# light: B1 light
# notes: as for B1
# B8: GpH7-A5/GpH7-B3 variant T335_05P/GpL16-k0 (antibody, human IgG1, kappa)
# heavy 1: not shown
# heavy 2: not shown
# light: B1 light
# notes: as for B1
# B9: GpH7-A5/GpH7-B3 variant E333_14T/GpL16-k0 (antibody, human IgG1, kappa)
# heavy 1: not shown
# heavy 2: not shown
# light: B1 light
# notes: as for B1
# B10: GpH7-A5/GpH7-B3 variant T335_06M/GpL16-k0 (antibody, human IgG1, kappa)
# heavy 1: not shown
# heavy 2: not shown
# light: B1 light
# notes: as for B1
# B11: GpH7-A5/GpH7-B3 variant T335_01G/GpL16-k0 (antibody, human IgG1, kappa)
# heavy 1: not shown
# heavy 2: not shown
# light: B1 light
# notes: as for B1
# B12: GpH7-A5/GpH7-B3 variant E333_08L/GpL16-k0 (antibody, human IgG1, kappa)
# heavy 1: not shown
# heavy 2: not shown
# light: B1 light
# notes: as for B1
# B13: GpH7-A5/GpH7-B3 variant P331_20W/GpL16-k0 (antibody, human IgG1, kappa)
# heavy 1: not shown
# heavy 2: not shown
# light: B1 light
# notes: heterodimerized IgG1; alteration in the GpH7-B3 H chain only; also called He Ab
# B14: GpH7-A5/GpH7-B3 variant I332_02A/GpL16-k0 (antibody, human IgG1, kappa)
# heavy 1: not shown
# heavy 2: not shown
# light: B1 light
# notes: as for B13
# B15: GpH7-A5/GpH7-B3 variant I332_14T/GpL16-k0 (antibody, human IgG1, kappa)
# heavy 1: not shown
# heavy 2: not shown
# light: B1 light
# notes: as for B13
# B16: GpH7-A5/GpH7-B3 variant I332_06M/GpL16-k0 (antibody, human IgG1, kappa)
# heavy 1: not shown
# heavy 2: not shown
# light: B1 light
# notes: as for B13
# B17: GpH7-A5/GpH7-B3 variant I332_15Y/GpL16-k0 (antibody, human IgG1, kappa)
# heavy 1: not shown
# heavy 2: not shown
# light: B1 light
# notes: as for B13
# B18: GpH7-A5/GpH7-B3 variant I332_04F/GpL16-k0 (antibody, human IgG1, kappa)
# heavy 1: not shown
# heavy 2: not shown
# light: B1 light
# notes: as for B13
# Target: T1, FcγRIIa H
# Test: SPR (Biacore), antibody captured on antigen-peptide chip, FcγR as analyte; binding relative to GpH7-A5/GpH7-B3/GpL16-k0 = 100
row,Binder,He/Con_2aH
1,B1,102 % of HeCon Ab
2,B2,101 % of HeCon Ab
3,B3,103 % of HeCon Ab
4,B4,101 % of HeCon Ab
5,B5,102 % of HeCon Ab
6,B6,103 % of HeCon Ab
7,B7,102 % of HeCon Ab
8,B8,108 % of HeCon Ab
9,B9,100 % of HeCon Ab
10,B10,103 % of HeCon Ab
11,B11,103 % of HeCon Ab
12,B12,102 % of HeCon Ab

# Target: T2, FcγRIIb
# Test: as above
row,Binder,He/Con_2b
1,B1,94.6 % of HeCon Ab
2,B2,81.8 % of HeCon Ab
3,B3,97.6 % of HeCon Ab
4,B4,94 % of HeCon Ab
5,B5,89.8 % of HeCon Ab
6,B6,94.3 % of HeCon Ab
7,B7,90.3 % of HeCon Ab
8,B8,99.9 % of HeCon Ab
9,B9,86.1 % of HeCon Ab
10,B10,99.4 % of HeCon Ab
11,B11,96.7 % of HeCon Ab
12,B12,95 % of HeCon Ab

# Target: T4, FcγRIa (human, UniProt P12314 16-292)
# T4 construct: extracellular domain; also called FcgRI; 1a; not shown: His tag at the C terminus
# Test: SPR (Biacore), antibody captured, FcγR as analyte; binding as % of GpH7-A5/GpH7-B3/GpL16-k0
# T4 sequence (P12314 16-292): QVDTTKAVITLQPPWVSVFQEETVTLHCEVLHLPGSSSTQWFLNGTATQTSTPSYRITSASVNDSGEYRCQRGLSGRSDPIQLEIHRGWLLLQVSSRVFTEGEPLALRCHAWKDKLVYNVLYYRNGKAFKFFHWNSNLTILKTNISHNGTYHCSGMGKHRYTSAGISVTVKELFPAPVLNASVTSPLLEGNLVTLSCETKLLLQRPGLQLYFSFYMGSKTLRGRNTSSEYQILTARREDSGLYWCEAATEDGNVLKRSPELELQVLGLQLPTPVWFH
row,Binder,He/Con_1a
1,B13,94.5 % of control
2,B14,88.3 % of control
3,B15,91.8 % of control
4,B16,92.3 % of control
5,B17,88.8 % of control
6,B18,93.6 % of control

# Target: T3, FcγRIIb
# Test: as above
row,Binder,He/Con_2b
1,B13,111 % of control
2,B14,103 % of control
3,B15,106 % of control
4,B16,105 % of control
5,B17,101 % of control
6,B18,104 % of control
